In the experiment the target is C-domain fragment of human calmodulin (residues 76-148), calcium-free (apo) (human, UniProt P0DP23 77-149). The experiment is described as follows: NMR backbone assignment and chemical shift perturbation.

In the case of GPGSKRKQEEVSAIIIQRAYRRYLLKQKVKK, the binding result was “binds”.
